Test system: MS2 coat protein
Test: apparent KD of MS2 coat protein; designed switch direction (-1 OFF switch, 1 ON switch): -1; higher = weaker reporter binding
Summary of the method: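 Designed RNA switches with common flanks were made on Illumina chips by stalled E. coli RNA polymerase. Titration with SNAP-549-labelled MS2 coat protein doubled from 0.7 or 1.5 nM up to 3 µM. Apparent KD is each design's median over clusters after curve-fitting normalised fluorescence.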

[1] = Eterna round: R95, input ligand: FMN 200 uM
[2] = Eterna round: R95, input ligand: microRNA oligo, concentration not stated
[3] = Eterna round: R95, input ligand: none
[4] = input ligand: microRNA oligo, concentration not stated

Sequence | apparent KD of MS2 coat protein [1] [nM] | apparent KD of MS2 coat protein [2] [nM] | apparent KD of MS2 coat protein [3] [nM] | apparent KD of MS2 coat protein (input ligand: FMN 200 uM) [nM] | apparent KD of MS2 coat protein [4] [nM] | apparent KD of MS2 coat protein (input ligand: none) [nM]
GAUUAUGCGAGCUUUAGGGACAUGAGGAUCACCCAUGUUCGUCUUAUUGAUCUAGGUACGCUGACAUACCUAAAUCU [Mod of one of jandersonlee's solutions 2] (puzzle: Sensor v3, turn-off variant 1) | 22.4 | 36.1 | 24.4 |  |  | 
GAUUAUGCGAGCUUUAGGGACAUGAGGAUCACCCAUGUUCGUCUUAUUGAUCUAGGUGCACUGACAUACCUAAAUCU [JMF 89] (puzzle: Sensor v3, turn-off variant 1) | 28.5 | 37.9 | 29.8 |  |  | 
GAUUAUGCGAGCUUUAGGGACAUGAGGAUCACCCAUGUUCGUCUUAUUGGUCUAGAUGCACUGACAUACCUAAAUCU [JMF 79] (puzzle: Sensor v3, turn-off variant 1) | 15.9 | 19.1 | 16.3 |  |  | 
GAUUAUGCGAGCUUUAGGGACAUGAGGAUCACCCAUGUUCGUCUUAUUGGUCUAGGUACGCUAACAUACCUAAAUCU [JMF 4] (puzzle: Sensor v3, turn-off variant 1) | 22.6 | 37.4 | 23.4 |  |  | 
GAUUAUGCGAGCUUUAGGGACAUGAGGAUCACCCAUGUUCGUCUUAUUGGUCUAGGUACGCUGACAUACCUAAAUCU [JMF 101] (puzzle: Sensor v3, turn-off variant 1) | 20.9 | 32.2 | 23.7 |  |  | 
GAUUAUGCGAGCUUUAGGGACAUGAGGAUCACCCAUGUUCGUCUUAUUGGUCUGGGUACGCUAACAUACCUAAAUCU [JMF 5] (puzzle: Sensor v3, turn-off variant 1) | 34.3 | 46.7 | 37.2 |  |  | 
GAUUAUGCGAGCUUUAGGGACAUGAGGAUCACCCAUGUUCGUCUUGUUGAUCUAGGUACACUGACAUACCUAAAUCU [JMF 65] (puzzle: Sensor v3, turn-off variant 1) | 22 | 26.9 | 18.3 |  |  | 
GAUUGACAUGAGGAUCACCCAUGUGAGGAUAUCGGCCGGACCUUGUUAGCUUCCACCGCGAGAAGGCACAUCGG [Exclusion 1 V30] (puzzle: Exclusion 1) |  | 17 |  |  |  | 
GAUUGACAUGAGGAUCACCCAUGUGAGGAUAUCGGCCGGAUCUUGUUAGCUUCCAUCGCGAGAAGGCACAUAGG [Exclusion 1 V33] (puzzle: Exclusion 1) |  | 55.2 |  |  |  | 
GAUUGACAUGAGGAUCACCCAUGUGAGGAUAUCGGCUGGACCGUGUUGGCCUGCCUCUCGAGAAGGCGCAUAGG [Exclusion 1 V53] (puzzle: Exclusion 1) | 49.9 | 35.6 | 40.5 |  |  | 
GAUUGACAUGAGGAUCACCCAUGUGAGGAUAUCGGCUGGACCGUGUUGGCUUCCGUCGCGAGAAGGCGCAUAGG [Exclusion 1 V42] (puzzle: Exclusion 1) | 61 | 43.5 | 46.4 |  |  | 
GAUUGAGAGCAGGAUAUCUUAGAAAUGUAUGAAAGAGAAGGGCUCACAUGAGGAUCACCCAUGUGGUCCUAGAU [JL Dibiri mod 17] (Eterna round: R96, puzzle: Exclusion 6) |  |  |  | 162 | 17.9 | 25.4
GAUUGAGAGCAGGAUAUCUUAGAAAUGUAUGAAAGAGAAGGGCUCACAUGAGGAUCACCCAUGUGGUCCUAGAU [JL Dibiri mod 17] (puzzle: Exclusion 6) | 244 | 22.8 | 27.5 |  |  | 
GCAAGCUUUUUGGUUUUCAACAUGAGGAUCACCCAUGUUCGUCUUAUACCCGGGCCCGGGCGGUGCCCGGGCCCGGG [-40, -68 kcal, A 14%] (Eterna round: R97, puzzle: Sensor, turn-off variant 1) |  |  |  | 18.2 |  | 21.7
GCACGGAAUGUAGGAUAUUAGUGCGAUUAGCACUGAGAAGGACAUGAGGAUCACCCAUGUUCCUCAAUAAUAAACCUUCCGUGC [Eli exng1 - 044] (Eterna round: R96, puzzle: Exclusion NG 1) |  |  |  | 13 | 10.2 | 13.3
GCACGGAGUGUAGGAUAUCUGUGCGAUUAGCUCAGAGAAGGACAUGAGGAUCACCCAUGUGUGUUCCAAUAAUAAAAUCCGUGC [Eli exng1 - 063] (Eterna round: R96, puzzle: Exclusion NG 1) |  |  |  | 1500 | 270 | 329
GCACGGAUUGUAGGAUAUCUGUGCGAUUAGCUCAGAGAAGGACACAUGAGGAUCACCCAUGUUACCUCAAUUAGCCUUCCGUGC [Eli exng1 - 030] (Eterna round: R96, puzzle: Exclusion NG 1) |  |  |  | 21.7 | 14.9 | 20

Sequence | apparent KD of MS2 coat protein [1] [nM] | apparent KD of MS2 coat protein [2] [nM] | apparent KD of MS2 coat protein [3] [nM] | apparent KD of MS2 coat protein (input ligand: FMN 200 uM) [nM] | apparent KD of MS2 coat protein [4] [nM] | apparent KD of MS2 coat protein (input ligand: none) [nM]
GCACGGUUGGUAGGAUAUCCUUGCGAUUAGCAAGGAGAAGGACCACAUGAGGAUCACCCAUGUACCUCAAUUGUCCUUCCGUGC [Eli exng1 - 026] (Eterna round: R96, puzzle: Exclusion NG 1) |  |  |  | 18.5 | 13.9 | 19.3
GCAGAAUGAGUUAGGAUAUGAUGAUUAUUCGGAAAUCAGAAGGAACUUGAGGAUCACCCAAGUAAAGAUAGGGU [JR_BMEx4_Sub063] (Eterna round: R97, puzzle: Brourd's mod of Exclusion 4) |  |  |  | 361 |  | 221
GCAGAGCAAGGAUAUACAUGAGGAUCACCCAUGUAAUCUGAAAGGAUUGUAUGGCUCUGUAGAAGGUGCGAAAA [Ederxein] (Eterna round: R97, puzzle: Exclusion 3) |  |  |  | 41.9 |  | 22.7
GCAGCAAAUUCCAUUAAAACCACAUGAGGAUCACCCAUGUCUCAGGAUAUGGUCUGGAUUACAGGCCAGAAGGGAGAAAGCUGC [Eli exng3 - 055] (Eterna round: R96, puzzle: Exclusion NG 3) |  |  |  | 10.1 | 11.9 | 16.3
GCAGCAACUCUAAUCAAAACCACAUGAGGAUCACCCAUGUCUCAGGAUAUGGUCUGGAUUACAGGCCAGAAGGGAGAAAGCUGC [Eli exng3 - 050] (Eterna round: R96, puzzle: Exclusion NG 3) |  |  |  | 13.3 | 10.6 | 19.4
GCAGCAUAGUCCAAAUAGGACAUACAUGAGGAUCACCCAUGUCAGGAUAUGGUCUGGAUUACAGGCCAGAAGGGACGAAGCUGC [Eli exng3 - 005] (Eterna round: R96, puzzle: Exclusion NG 3) |  |  |  | 18 | 16.4 | 22.6
GCAGCAUAGUUUACUAACUGUUACAUGAGGAUCACCCAUGUCUAGGAUAUGGUCUGGAUUACAGGCCAGAAGGAGACAAGCUGC [Eli exng3 - 034] (Eterna round: R96, puzzle: Exclusion NG 3) |  |  |  | 14.1 | 12.1 | 16.6
GCAGGCGACUAGGCUCGUCUUAUUUUGAGAAGAUUGAAAACAUGAGGAUCACCCAUGUGUGUGGGAGAGUUGGAGUG [JR_SV3TOV2_Sub012] (puzzle: Sensor v3, turn-off variant 2) | 268 | 346 | 475 |  |  | 
GCAGGUUAAGUCAGGAUAUACCUAUGGAUACAUAGGUAGAAGGGACAUGAGGAUCACCCAUGUGCCUCGCCUGC [Fiskers BMX 4 - 58] (puzzle: Brourd's mod of Exclusion 4) |  | 15.4 |  |  |  | 
GCAGGUUAAGUCAGGAUAUACCUAUGGAUACAUAGGUAGAAGGGACAUGAGGAUCACCCAUGUUCCUCACCUGC [Fiskers BMX 4 - 21] (puzzle: Brourd's mod of Exclusion 4) |  | 13.9 |  |  |  | 
GCAGGUUAAGUCAGGAUAUACCUCUGGAAACAGAGGUAGAAGGGACAUGAGGAUCACCCAUGUUUCUCAUCUGC [Mod of Eli 3 - Jieux - Brourd's mod of Exclusion 4] (Eterna round: R97, puzzle: Brourd's mod of Exclusion 4) |  |  |  | 85.6 |  | 19.2
GCAGUAUGAGUUAGGAUAUGAUGAUUUUUUUUAUUUCAGAAGGAACUUGAGGAUCACCCAAGUUAAGAUUUGGU [JR_BMEx4_Sub068] (Eterna round: R97, puzzle: Brourd's mod of Exclusion 4) |  |  |  | 45.6 |  | 24.6
GCAGUGCGAGGAUAUACAUGAGGAUCACCCAUGUGAGAAUAAUAAGUGAGGAAGAAAAGUAGAAGGCGCGUUGG [Mat - Exclusion 3 - Mod of Salish D67] (puzzle: Exclusion 3) | 103 | 41.1 | 46.8 |  |  | 
GCAUAUGAUGUAGGAUAUGCGAGACAUGAGGAUCACCCAUGUGAGGGAAGGAGAAGGAGAAGAGAGUAGAAGGAUAGAGUGUGA [Default title] (Eterna round: R96, puzzle: Exclusion NG 2) |  |  |  | 83.8 | 85.3 | 85.1
GCAUGAUACUAGGAUAUCAGCAUACUUCAAUGUUGAGAAGGAGUAACAUGAGGAUCACCCAUGUAUCCAACAUG [Exclusion 6 - 4:a] (puzzle: Exclusion 6) |  | 38.5 |  |  |  | 
GCAUGUCUUAAGGAUAUGCCUAGGCGUGAGCCGGCAGAAGGUAAGACAUGAGGAUCACCCAUGUUUUCCUAAAA [jl-ex6-4.30 ViennaUCT mod] (Eterna round: R97, puzzle: Exclusion 6) |  |  |  | 280 |  | 51.2
